Results taken from PMC5832979, “Ligand complex structures of L‐amino acid oxidase/monooxygenase from Pseudomonas sp. AIU 813 and its conformational change” (FEBS Open Bio, 2018).

How the values were obtained:
L-AAO/MOG [1] = target: T1, L-AAO/MOG (Pseudomonas sp. AIU 813, UniProt W6JQJ6); assay: X-ray crystal structure, […] Å; format: binding; details: bound cofactor; redox state mixed or uncertain; L-Lys complex
T1 construct: gene laao; N-terminally His-tagged, pET15b-laao/mog, expressed in E. coli; homodimer with FAD
T1 sequence (W6JQJ6 1-560): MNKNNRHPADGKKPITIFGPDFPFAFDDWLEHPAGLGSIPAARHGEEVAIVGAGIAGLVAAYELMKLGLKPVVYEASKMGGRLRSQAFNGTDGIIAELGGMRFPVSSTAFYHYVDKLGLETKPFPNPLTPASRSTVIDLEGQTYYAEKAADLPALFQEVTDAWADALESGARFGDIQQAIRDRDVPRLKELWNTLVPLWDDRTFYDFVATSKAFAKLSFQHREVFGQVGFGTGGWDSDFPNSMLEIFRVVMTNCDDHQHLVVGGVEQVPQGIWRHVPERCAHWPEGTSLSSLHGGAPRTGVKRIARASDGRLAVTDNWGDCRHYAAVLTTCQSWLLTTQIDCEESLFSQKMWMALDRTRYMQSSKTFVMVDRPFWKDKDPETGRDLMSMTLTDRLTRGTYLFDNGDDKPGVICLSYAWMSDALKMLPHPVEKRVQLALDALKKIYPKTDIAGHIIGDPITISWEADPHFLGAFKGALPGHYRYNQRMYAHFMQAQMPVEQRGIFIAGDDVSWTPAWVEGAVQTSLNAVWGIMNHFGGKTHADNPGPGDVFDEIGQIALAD

L-AAO/MOG [2] = target: T1, L-AAO/MOG; assay: X-ray crystal structure, soaking, […] Å; format: binding; details: active site, also second site; 20 mM soak; density relatively ambiguous; modelled as unreacted substrate
L-AAO/MOG [3] = target: T1, L-AAO/MOG; assay: X-ray crystal structure, soaking, […] Å; format: binding; details: active site, also second site at dimer interface; 10 mM soak; modelled as unreacted substrate, redox state uncertain
L-AAO/MOG [4] = target: T1, L-AAO/MOG; assay: X-ray crystal structure, soaking, […] Å; format: binding; details: active site, also second site; 20 mM soak; density relatively ambiguous; modelled as unreacted substrate; remark: listed apart in the source
N=C(N)NCCC[C@H](N)C(=O)O = tested on: T2, N=C(N)NCCC[C@H](N)C(=O)O; assay: purified protein; format: biochemical, Pseudomonas sp. AIU 813; details: oxidase reaction, borate-NaOH pH 9.0, 30 °C, pH 9.0
T2 construct: N-terminally His-tagged, pET15b-laao/mog, expressed in E. coli; homodimer with FAD

NCCCC[C@H](N)C(=O)O = tested on: T3, NCCCC[C@H](N)C(=O)O; assay: purified protein; format: biochemical, Pseudomonas sp. AIU 813; details: 100 mM potassium phosphate pH 7.0, 30 °C
T3 construct: N-terminally His-tagged, pET15b-laao/mog, expressed in E. coli; homodimer with FAD

purified protein [5] = substrate: NCCC[C@H](N)C(=O)O; assay: purified protein; details: borate-NaOH pH 9.0, 30 °C
purified protein [6] = substrate: N=C(N)NCCC[C@H](N)C(=O)O; assay: purified protein; format: biochemical, Pseudomonas sp. AIU 813; details: borate-NaOH pH 9.0, 30 °C, pH 9.0
purified protein [7] = substrate: NCCCC[C@H](N)C(=O)O; assay: purified protein; format: biochemical, Pseudomonas sp. AIU 813; details: 100 mM potassium phosphate pH 7.0, 30 °C, pH 7.0
[8] = target: the molecule itself; assay: crystal structure; sitting-drop vapor diffusion at 20 °C, 20% PEG3350 and 0.15 M DL-malic acid pH 7.0; crystals soaked with 10 mM L-Lys, 20 mM L-Orn or 20 mM L-Arg; tetramer (two biological dimers) in the asymmetric unit

**Q.** For Cc1cc2nc3c(=O)[nH]c(=O)nc-3n(C[C@H](O)[C@H](O)[C@H](O)COP(=O)(O)OP(=O)(O)OC[C@H]3O[C@@H](n4cnc5c(N)ncnc54)[C@H](O)[C@@H]3O)c2cc1C [FAD], which “X-ray crystal structure, 2.10 Å” value (L-AAO/MOG [1]) is on record?
**A.** FAD and L‐Lys molecules are shown as yellow and magenta sticks

**Q.** Which “X-ray crystal structure, soaking, 2.30 Å” value (L-AAO/MOG [2]) does the source give for N=C(N)NCCC[C@H](N)C(=O)O [L-Arg] here?
**A.** The structures of L‐AAO/MOG complexed with either L‐Lys, L‐Orn, or L‐Arg were determined

**Q.** With NCCCC[C@H](N)C(=O)O [L-Lys] as the molecule, how does the “X-ray crystal structure, soaking, 2.10 Å” value (L-AAO/MOG [3]) read?
**A.** electron density map for a L‐Lys molecule was clearly observed in the substrate binding pocket

**Q.** How did the “X-ray crystal structure, soaking, 2.00 Å” value (L-AAO/MOG [4]) turn out when NCCC[C@H](N)C(=O)O [L-Orn] was run?
**A.** The structures of L‐AAO/MOG complexed with either L‐Lys, L‐Orn, or L‐Arg were determined

**Q.** For “L-AAO/MOG (Pseudomonas sp. AIU 813; D238A)”, which Km (N=C(N)NCCC[C@H](N)C(=O)O) is on record?
**A.** 410 ± 10 µM

**Q.** And the kcat (N=C(N)NCCC[C@H](N)C(=O)O)?
**A.** 0.1 ± 0.02 s⁻¹

**Q.** What about the kcat/Km (N=C(N)NCCC[C@H](N)C(=O)O) of the same molecule?
**A.** 240 ± 60 M⁻¹ s⁻¹

**Q.** What about the Km (NCCCC[C@H](N)C(=O)O; monooxygenase reaction) of the same molecule?
**A.** 260 ± 20 µM

**Q.** What about the kcat (NCCCC[C@H](N)C(=O)O; monooxygenase reaction) of the same molecule?
**A.** 2.7 ± 0.4 s⁻¹

**Q.** What about the kcat/Km (NCCCC[C@H](N)C(=O)O; monooxygenase reaction) of the same molecule?
**A.** 10000 ± 1000 M⁻¹ s⁻¹

**Q.** What about the Km (NCCCC[C@H](N)C(=O)O; oxidase reaction, pH 7.0) of the same molecule?
**A.** 610 ± 50 µM

**Q.** And the kcat (NCCCC[C@H](N)C(=O)O; oxidase reaction, pH 7.0)?
**A.** 0.5 ± 0.03 s⁻¹

**Q.** Which results are given for “L-AAO/MOG (Pseudomonas sp. AIU 813; D238E)”?
**A.** Km (NCCCC[C@H](N)C(=O)O; monooxygenase reaction): 43 ± 1 µM; kcat (NCCCC[C@H](N)C(=O)O; monooxygenase reaction): 8.1 ± 0.6 s⁻¹; kcat/Km (NCCCC[C@H](N)C(=O)O; monooxygenase reaction): 190000 ± 10000 M⁻¹ s⁻¹; Km (NCCCC[C@H](N)C(=O)O; oxidase reaction): 18 ± 6 µM; kcat (NCCCC[C@H](N)C(=O)O; oxidase reaction): 2.3 ± 0.3 s⁻¹; kcat/Km (NCCCC[C@H](N)C(=O)O; oxidase reaction): 130000 ± 10000 M⁻¹ s⁻¹

**Q.** Which results are given for “L-AAO/MOG (Pseudomonas sp. AIU 813; D238F)”?
**A.** Km (N=C(N)NCCC[C@H](N)C(=O)O): 80 ± 18 µM; kcat (N=C(N)NCCC[C@H](N)C(=O)O): 0.1 ± 0.01 s⁻¹; kcat/Km (N=C(N)NCCC[C@H](N)C(=O)O): 1300 ± 100 M⁻¹ s⁻¹; Km (NCCCC[C@H](N)C(=O)O; monooxygenase reaction): 72 ± 3 µM; kcat (NCCCC[C@H](N)C(=O)O; monooxygenase reaction): 0.8 ± 0.04 s⁻¹; kcat/Km (NCCCC[C@H](N)C(=O)O; monooxygenase reaction): 11000 ± 1000 M⁻¹ s⁻¹; Km (NCCCC[C@H](N)C(=O)O; oxidase reaction, pH 7.0): 49 ± 9 µM; kcat (NCCCC[C@H](N)C(=O)O; oxidase reaction, pH 7.0): 0.17 ± 0.01 s⁻¹; kcat/Km (NCCCC[C@H](N)C(=O)O; oxidase reaction, pH 7.0): 3500 ± 200 M⁻¹ s⁻¹

B1: L‐Amino acid oxidase/monooxygenase from Pseudomonas sp. AIU 813 (enzyme)
chain: MNKNNRHPADGKKPITIFGPDFPFAFDDWLEHPAGLGSIPAARHGEEVAIVGAGIAGLVAAYELMKLGLKPVVYEASKMGGRLRSQAFNGTDGIIAELGGMRFPVSSTAFYHYVDKLGLETKPFPNPLTPASRSTVIDLEGQTYYAEKAADLPALFQEVTDAWADALESGARFGDIQQAIRDRDVPRLKELWNTLVPLWDDRTFYDFVATSKAFAKLSFQHREVFGQVGFGTGGWDSDFPNSMLEIFRVVMTNCDDHQHLVVGGVEQVPQGIWRHVPERCAHWPEGTSLSSLHGGAPRTGVKRIARASDGRLAVTDNWGDCRHYAAVLTTCQSWLLTTQIDCEESLFSQKMWMALDRTRYMQSSKTFVMVDRPFWKDKDPETGRDLMSMTLTDRLTRGTYLFDNGDDKPGVICLSYAWMSDALKMLPHPVEKRVQLALDALKKIYPKTDIAGHIIGDPITISWEADPHFLGAFKGALPGHYRYNQRMYAHFMQAQMPVEQRGIFIAGDDVSWTPAWVEGAVQTSLNAVWGIMNHFGGKTHADNPGPGDVFDEIGQIALAD
notes: L-amino acid oxidase/monooxygenase (L-AAO/MOG), Pseudomonas sp; AIU 813; FAD-dependent; expression plasmid pET15b-laao/mog; Carries FAD; The biological dimer is chains A-C and B-D of the crystal; also called L‐AAO/MOG; wild‐type enzyme
**Q.** Which Km (purified protein [5]; monooxygenase reaction) does the source give for B1 here?
**A.** 33 ± 1 µM

**Q.** What about the kcat (purified protein [5]; monooxygenase reaction) of the same molecule?
**A.** 6.7 s⁻¹

**Q.** What about the kcat/Km (purified protein [5]; monooxygenase reaction) of the same molecule?
**A.** 200000 M⁻¹ s⁻¹

**Q.** And the Km (purified protein [5]; oxidase reaction)?
**A.** 22 ± 4 µM

**Q.** And the kcat (purified protein [5]; oxidase reaction)?
**A.** 1.5 s⁻¹

**Q.** What about the kcat/Km (purified protein [5]; oxidase reaction) of the same molecule?
**A.** 68000 M⁻¹ s⁻¹

**Q.** And the Km (purified protein [6]; monooxygenase reaction)?
**A.** 67 ± 5 µM

**Q.** And the kcat (purified protein [6]; monooxygenase reaction)?
**A.** 1.6 ± 0.2 s⁻¹

**Q.** What about the kcat/Km (purified protein [6]; monooxygenase reaction) of the same molecule?
**A.** 24000 ± 1000 M⁻¹ s⁻¹

**Q.** What about the Km (purified protein [6]; oxidase reaction) of the same molecule?
**A.** 48 ± 1 µM

**Q.** What about the kcat (purified protein [6]; oxidase reaction) of the same molecule?
**A.** 0.41 ± 0.02 s⁻¹

**Q.** What about the kcat/Km (purified protein [6]; oxidase reaction) of the same molecule?
**A.** 8500 ± 650 M⁻¹ s⁻¹

**Q.** And the Km (purified protein [7]; monooxygenase reaction)?
**A.** 61 ± 6 µM

**Q.** And the kcat (purified protein [7]; monooxygenase reaction)?
**A.** 4.5 ± 0.1 s⁻¹

**Q.** And the kcat/Km (purified protein [7]; monooxygenase reaction)?
**A.** 74000 ± 5000 M⁻¹ s⁻¹

**Q.** What about the Km (purified protein [7]; oxidase reaction) of the same molecule?
**A.** 27 ± 3 µM

**Q.** What about the kcat (purified protein [7]; oxidase reaction) of the same molecule?
**A.** 0.8 ± 0.09 s⁻¹

**Q.** And the kcat/Km (purified protein [7]; oxidase reaction)?
**A.** 30000 ± 1000 M⁻¹ s⁻¹

**Q.** Does B1 bind [8]?
**A.** binds
